Laboratory results published in article PMC9557913 (Molecular cell, 2022).
Each block holds one binder with its values, some of them ahead of it.

Key:
SEC = target: the molecule itself; assay: SEC
MCU, Q8NE86 = target: T1, MCU, Q8NE86; assay: co-IP; conditions: remark: other sources report otherwise
T1 chain: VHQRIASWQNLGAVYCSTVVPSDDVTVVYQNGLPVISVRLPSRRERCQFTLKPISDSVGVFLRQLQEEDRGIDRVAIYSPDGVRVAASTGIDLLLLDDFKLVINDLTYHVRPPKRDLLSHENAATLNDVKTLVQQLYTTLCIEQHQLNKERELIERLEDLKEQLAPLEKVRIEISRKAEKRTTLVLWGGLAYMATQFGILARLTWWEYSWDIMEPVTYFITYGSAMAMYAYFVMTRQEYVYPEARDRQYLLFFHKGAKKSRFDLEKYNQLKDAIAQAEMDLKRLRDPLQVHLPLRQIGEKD

B1: purified human MICU2 (MICU2-2ND) (natural protein, UniProt Q8IYU8 23-434, looked up)
chain: AVSRQAVRSPGPLAAAVAGAALAGAGAAWHHSRVSVAARDGSFTVSAQKNVEHGIIYIGKPSLRKQRFMQFSSLEHEGEYYMTPRDFLFSVMFEQMERKTSVKKLTKKDIEDTLSGIQTAGCGSTFFRDLGDKGLISYTEYLFLLTILTKPHSGFHVAFKMLDTDGNEMIEKREFFKLQKIISKQDDLMTVKTNETGYQEAIVKEPEINTTLQMRFFGKRGQRKLHYKEFRRFMENLQTEIQEMEFLQFSKGLSFMRKEDFAEWLLFFTNTENKDIYWKNVREKLSAGESISLDEFKSFCHFTTHLEDFAIAMQMFSLAHRPVRLAEFKRAVKVATGQELSNNILDTVFKIFDLDGDECLSHEEFLGVLKNRMHRGLWVPQHQSIQEYWKCVKKESIKGVKEVWKQAGKGLF
- stoichiometry N (SEC): 2

- fold co-precipitated with MCU, against MICU1-2D (MCU, Q8NE86): 2 fold
B2: disulfide-connected MICU1-MICU1 homodimer (MICU1-1D), Q9BPX6 34-476 (complex)
chain: MMVAFLGASAVTASTGLLWKRAHAESPPCVDNLKSDIGDKGKNKDEGDVCNHEKKTADLAPHPEEKKKKRSGFRDRKVMEYENRIRAYSTPDKIFRYFATLKVISEPGEAEVFMTPEDFVRSITPNEKQPEHLGLDQYIIKRFDGKKISQEREKFADEGSIFYTLGECGLISFSDYIFLTTVLSTPQRNFEIAFKMFDLNGDGEVDMEEFEQVQSIIRSQTSMGMRHRDRPTTGNTLKSGLCSALTTYFFGADLKGKLTIKNFLEFQRKLQHDVLKLEFERHDPVDGRITERQFGGMLLAYSGVQSKKLTAMQRQLKKHFKEGKGLTFQEVENFFTFLKNINDVDTALSFYHMAGASLDKVTMQQVARTVAKVELSDHVCDVVFALFDCDGNGELSNKEFVSIMKQRLMRGLEKPKDMGFTRLMQAMWKCAQETAWDFALPKQ
modifications: here or on the partner: intersubunit disulfide through C463

B3: purified MBP-fused human MICU1 (MICU1-1ND) (natural protein, UniProt Q9BPX6 34-476, looked up)
chain: B2 chain
- stoichiometry N (SEC): 2
